Molecular target: RNA polymerase II (RNAP II), endogenous
Test: Co-IP (IP: myc, Western blot for RNA Pol II, band intensity printed below lanes)
Details: HCT116 cells transfected with myc-KAT8 WT or myc-KAT8 2KR plasmid; parent: 1.0

Question: Which ratio to parent does the source give for “myc-KAT8 (lysine acetyltransferase 8), wild type (from UniProt Q9H7Z6) K168R; K175R” here?
Answer: 3.5

From publication PMC9970984
